Results reported in US12364743B2, “Microbiota sequence variants of tumor-related antigenic epitopes” (ENTEROME S.A., priority 2016, dated 2025).

How the values were obtained:
[1] = tested on: unresectable or metastatic melanoma; settings: patients; cited from earlier work
HLA-A*0201 = biological target: T1, HLA-A*0201 (Homo sapiens, UniProt P04439, D140Y/D185E/D98H/E176V/E277Q/G131W/G231S/I119V/I121R/I166T/I218V/L300P/L318F/N151K/N90K/P208A/P217A/Q86G/Q94H/R138H/R169H/T345S); assay: Affinity of peptides to HLA-A*0201 on T2 cells (FACS, anti-HLA-A2); format: binding; settings: for binding affinity to HLA-A*0201 compared among peptides: Example 5; for concentration inducing 20% of expression of the HLA-A*0201: 100% = reference peptide HIV pol 589-597 at 100 μM; for Mean fluorescence intensity: 16 hours
T1 construct: the human tumoral cell T2 which expresses the HLA-A*0201 molecule, but which is TAP 1/2 negative; endogenous in cells; host or cells: T2 cells (human, TAP 1/2 negative)
Source text: The experimental protocol is similar to the one that was validated for peptides presented by the HLA-A*0201 (Tourdot et al., A general strategy to enhance immunogenicity of low-affinity HLA-A2.1-associated peptides: implication in the identification of cryptic tumor epitopes. Eur J Immunol. 2000 December; […]:3411-21). Affinity measurement of the peptides is achieved with the human tumoral cell T2 which expresses the HLA-A*0201 molecule, but which is TAP 1/2 negative and incapable of presenting endogenous peptides.
T2 cells (2.10^5 cells per well) were incubated with decreasing concentrations of peptides from 100 μM to 0.1 μM in a AIMV medium supplemented with 100 ng/μl of human β2m at 37° C. for 16 hours. Cells were then washed two times and marked with the anti-HLA-A2 antibody coupled to PE (clone BB7.2, BD Pharmagen).
The analysis was performed by FACS (Guava Easy Cyte). […] A2. Solubilisation of Peptides
The experimental protocol, materials and methods correspond to those outlined in Example 4, with the only difference that the above mentioned antigenic peptides were used.

β/A2/DR3 mice = assay: ELISPOT-IFNγ on splenocytes of vaccinated mice; format: in vivo, mouse; settings: for percentage of ConA-induced response (mean+/−SEM): ELISPOT-IFNγ, vaccination 100 μg s.c. d0 and d14, spleen d21
Source text: Briefly, 14 β/A2/DR3 mice were assigned randomly (based on mouse sex and age) to two experimental groups, each immunized with a specific vaccination peptide (vacc-pAg) combined to a common helper peptide (h-pAg) (as outlined in Table 7 below). The vacc-pAg were compared in couples (group 1 vs. group 2). Thereby, both native and optimized versions of a single peptide were compared in each wave.
The animals were immunized on day o (do) with a prime injection, and on d14 with a boost injection. Each mouse was injected s.c. at tail base with 100 μL of an oil-based emulsion that contained: • 100 μg of vacc-pAg (25 μL of 4 mg/mL stock per mouse); • 150 μg of h-pAg (15 μL of 10 mg/mL stock per mouse); • 10 μL of PBS to reach a total volume of 50 μL (per mouse); • Incomplete Freund's Adjuvant (IFA) added at 1:1 (v:v) ratio (50 μL per mouse).
Seven days after the boost injection (i.e. on d21), the animals were euthanized and the spleen was harvested. Splenocytes were prepared by mechanical disruption of the organ followed by 70 μm-filtering and Ficoll density gradient purification.
The splenocytes were immediately used in an ELISPOT-IFNγ assay (Table 8). Experimental conditions were repeated in quadruplets, using 2*10^5 total splenocytes per well, and were cultured in presence of vacc-pAg (10 μM), Concanavalin A (ConA, 2.5 μg/mL) or medium-only to assess for their capacity to secrete IFNγ. The commercial ELISPOT-IFNγ kit (Diaclone Kit Mujrine IFNγ ELISpot) was used following the manufacturer's instructions, and the assay was performed after about 16 h of incubation.
Spots were counted on a Grand ImmunoSpot® S6 Ultimate UV Image Analyzer interfaced to the ImmunoSpot 5.4 software (CTL-Europe). Data plotting and statistical analysis were performed with the Prism-5 software (GraphPad Software Inc.).
The data were then normalized as a number of specific spots (the average counts obtained in the ‘medium only’ condition being subtracted) per 10^6 total T cells.
The individual average values (obtained from the quadruplicates) were next used to plot the group average values (see FIG. 3A). As the functional capacity of T cells might vary from individual to individual, the data were also expressed as the percentage of the ConA response per individual (see FIG. 3B).

U87-MG cells = assay: In vitro cytotoxicity of CD3+ T cells from immunized mice against U87 cells; format: cell-based; settings: CD3+ T cells of mice immunized with the peptide; 72 hours co-culture; DAPI/annexin V cytometry
Method: Briefly, CD8 T cells from mice immunized with IL13RA2-H or […] were used. These cells were obtained after sorting of splenocyte from immunized mice and were placed on top of U87 cells (tumor cells expressing IL13RA2).
In more detail, CD3^+ T cells were purified from splenocytes of HHD mice immunized with IL13RA2-H ([…], SEQ ID NO: 1) or IL13RA2-B ([…], SEQ ID NO: 18). To this end, B6 β2 m^ko HHD/DR3 mice were injected s.c. at tail base with 100 μL of an oil-based emulsion containing vaccination peptide plus helper peptide plus CFA (complete Freund's adjuvant), at day 0 and day 14 as described in Example 5. On d21, i.e. seven days after the boost injection, the animals were euthanized and the spleen was harvested. Splenocytes were prepared by mechanical disruption of the organ. CD3+ purification was performed using the mouse total T cells isolation kit from Miltenyi biotec using the recommended procedure. […]
U87-MG cells were seeded at 6×10^5 cells/well in flat-bottomed 24-well culture plates and incubated for 24 h at 37° C. in DMEM (Dulbecco's Modified Eagle Medium) containing 10% of FCS (fetal calf serum) and antibiotics. […] 72 hours after co-culture of U87-MG cells and CD3+ T cells, all cells from the wells were harvested and specific U87-MG cell death was evaluated after immunostaining of CD45 negative cells with DAPI and fluorescent annexin V followed by cytometry analysis.

[2] = tested on: renal cell carcinoma (RCC); settings: patients; cited from earlier work
NSCLC = settings: patients; cited from earlier work
[3] = ex vivo re-stimulation with IL13RA2-B pAg 10 μM
[4] = ex vivo re-stimulation with IL13RA2-H pAg 10 μM

Substance | binding affinity to HLA-A*0201 compared among peptides (HLA-A*0201) | binding to HLA-A*0201 (HLA-A*0201) | concentration inducing 20% of expression of the HLA-A*0201 (HLA-A*0201) [µM] | Mean fluorescence intensity (HLA-A*0201; peptide at 0.1 μM) | Mean fluorescence intensity (HLA-A*0201; peptide at 1 μM) | Mean fluorescence intensity (HLA-A*0201; peptide at 10 μM) | Mean fluorescence intensity (HLA-A*0201; peptide at 100 μM) | percentage of ConA-induced response (mean+/−SEM) (β/A2/DR3 mice; [3]) | percentage of ConA-induced response (mean+/−SEM) (β/A2/DR3 mice; [4]) | U87 cell lysis (U87-MG cells) | other results
Ipilumumab: anti-CTLA-4 antibody | – | – | – | – | – | – | – | – | – | – | three-year survival rate [1]: around 20%
1A9V: SEQ ID NO: 1 with tryptophan at position 1 substituted by alanine and isoleucine at position 9 by valine (Eguchi et al., 2006) (ALPFGFILV; listed as Homo sapiens) | lowest affinity of the peptides tested | – | – | – | – | – | – | – | – | – | –
FLPFGFILV (sequence variant) [SEQ ID NO: 18] | considerably higher binding affinity to HLA-A*0201 than all other peptides tested | binds strongly | 4.4 | 9.9 | 12.18 | 40.77 | 112.05 | 56.3%+/−18.1 | 32.3%+/−11.8 | U87 cell lysis was observed | In vitro binding affinity (HLA-A*0201; relative affinity = concentration inducing 20% of HLA-A*0201 expression / that of reference peptide HIV pol 589-597, lower = stronger): 0.49; T cell responses in the ELISPOT-IFNγ assay (β/A2/DR3 mice; compared to IL13RA2-H-vaccinated animals): improved T cell responses
WLPFGFILI (listed as Homo sapiens) [SEQ ID NO: 1] | – | does not bind | 100 | 7.46 | 9.41 | 11.61 | 18.64 | 2.0%+/−0.8 | 1.1%+/−0.8 | not | –
Nivolumab: check point inhibitor targeting PD1 | – | – | – | – | – | – | – | – | – | – | three-year survival rate [2]: 44%; three-year survival rate (NSCLC): 18%
